Experimental findings from patent US20160084825A1 are described below.

Assay [1] has as its target wild-type LFA-1 (αLβ2) on 293T cells (UniProt P20701). Briefly: flow cytometry (FACS), LFA-1 on transfected 293T cells.
The target in assay [2] is LFA-1 disulfide mutant #9 (αL M1064C / β2 N678C) on 293T cells (UniProt P20701). Described as above.
Assay [3] concerns the target LFA-1 disulfide mutant #6 (αL Q1063C / β2 P677C) on 293T cells (UniProt P20701). Described as above.
Assay [4] has as its target LFA-1 disulfide mutant #3 (αL K1062C / β2 G676C) on 293T cells (UniProt P20701). Described as above.
Assay [5] addresses LFA-1 disulfide mutant #5 (αL K1062C / β2 P677C) on 293T cells (UniProt P20701). The description is as above.
Assay [6] concerns the target LFA-1 disulfide mutant #4 (αL Q1063C / β2 G676C) on 293T cells (UniProt P20701). Described as above.
Assay [7] concerns the target LFA-1 disulfide mutant #2 (αL E1061C / β2 G676C) on 293T cells (UniProt P20701). The assay is described as above.
For assay [8], the target named is LFA-1 disulfide mutant #7 (αL M1064C / β2 P677C) on 293T cells (UniProt P20701). The description is as above.
Assay [9] has as its target LFA-1 disulfide mutant #8 (αL Q1063C / β2 N678C) on 293T cells (UniProt P20701). Described as above.
Assay [10] has as its target LFA-1 disulfide mutant #6 (αL Q1063C / β2 P677C) on 293T cells (UniProt P20701). Briefly: flow cytometry (FACS), LFA-1 on transfected 293T cells; reference wild-type LFA-1.
Assay [11] has as its target LFA-1 disulfide mutant #3 (αL K1062C / β2 G676C) on 293T cells (UniProt P20701). Described as above.
In assay [12] the target is LFA-1 disulfide mutant #5 (αL K1062C / β2 P677C) on 293T cells (UniProt P20701). The assay is described as above.
For assay [13], the target named is LFA-1 disulfide mutant #4 (αL Q1063C / β2 G676C) on 293T cells (UniProt P20701). The assay is described as above.
Assay [14] concerns the target LFA-1 disulfide mutant #9 (αL M1064C / β2 N678C) on 293T cells (UniProt P20701). The assay is described as above.
Assay [15] addresses LFA-1 disulfide mutant #2 (αL E1061C / β2 G676C) on 293T cells (UniProt P20701). Described as above.
Assay [16] addresses LFA-1 disulfide mutant #7 (αL M1064C / β2 P677C) on 293T cells (UniProt P20701). The description is as above.
The target of assay [17] is LFA-1 disulfide mutant #8 (αL Q1063C / β2 N678C) on 293T cells (UniProt P20701). The description is as above.
The target of assay [18] is wild-type LFA-1 (αLβ2) on 293T cells (UniProt P20701). Briefly: flow cytometry (FACS), LFA-1 on transfected 293T cells; the reference itself.

Where “and” joins values, the source holds several entries; their conditions need not be identical. Identical values can stand only once.

Sequence of LFA-1 disulfide mutant #2 (αL E1061C / β2 G676C) on 293T cells (P20701 26-1170 E1086C, chain 1 of 2): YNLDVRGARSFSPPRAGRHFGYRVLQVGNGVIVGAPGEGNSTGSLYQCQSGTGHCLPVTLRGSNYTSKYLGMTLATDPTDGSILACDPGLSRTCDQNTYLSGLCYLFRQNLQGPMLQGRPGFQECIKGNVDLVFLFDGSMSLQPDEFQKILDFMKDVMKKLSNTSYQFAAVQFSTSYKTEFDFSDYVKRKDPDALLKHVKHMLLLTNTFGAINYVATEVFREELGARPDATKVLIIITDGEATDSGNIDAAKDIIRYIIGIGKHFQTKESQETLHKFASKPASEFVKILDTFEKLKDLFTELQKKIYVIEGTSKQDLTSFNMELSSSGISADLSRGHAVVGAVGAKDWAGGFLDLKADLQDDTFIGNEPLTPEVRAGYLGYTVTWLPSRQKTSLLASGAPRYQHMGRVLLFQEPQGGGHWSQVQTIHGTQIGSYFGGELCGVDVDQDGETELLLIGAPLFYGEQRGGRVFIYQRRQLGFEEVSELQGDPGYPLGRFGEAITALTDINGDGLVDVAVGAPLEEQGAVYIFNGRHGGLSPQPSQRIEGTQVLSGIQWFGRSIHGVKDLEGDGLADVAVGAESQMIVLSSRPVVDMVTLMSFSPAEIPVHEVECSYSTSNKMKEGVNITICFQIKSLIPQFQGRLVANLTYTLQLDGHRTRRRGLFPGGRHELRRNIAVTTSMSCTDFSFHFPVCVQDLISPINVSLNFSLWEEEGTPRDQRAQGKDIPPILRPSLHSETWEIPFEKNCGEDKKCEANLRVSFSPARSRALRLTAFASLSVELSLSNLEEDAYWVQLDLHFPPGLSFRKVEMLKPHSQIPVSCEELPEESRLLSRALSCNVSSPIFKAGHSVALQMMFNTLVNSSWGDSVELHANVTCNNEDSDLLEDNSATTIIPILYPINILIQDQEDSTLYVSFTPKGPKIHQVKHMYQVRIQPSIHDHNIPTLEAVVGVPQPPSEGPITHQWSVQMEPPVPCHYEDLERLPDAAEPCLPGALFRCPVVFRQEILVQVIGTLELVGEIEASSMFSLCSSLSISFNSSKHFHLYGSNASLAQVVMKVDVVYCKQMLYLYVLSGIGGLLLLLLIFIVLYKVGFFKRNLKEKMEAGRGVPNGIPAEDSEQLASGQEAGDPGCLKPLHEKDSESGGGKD
Sequence of LFA-1 disulfide mutant #2 (αL E1061C / β2 G676C) on 293T cells (P05107 23-769 G698C, chain 2 of 2, further chain): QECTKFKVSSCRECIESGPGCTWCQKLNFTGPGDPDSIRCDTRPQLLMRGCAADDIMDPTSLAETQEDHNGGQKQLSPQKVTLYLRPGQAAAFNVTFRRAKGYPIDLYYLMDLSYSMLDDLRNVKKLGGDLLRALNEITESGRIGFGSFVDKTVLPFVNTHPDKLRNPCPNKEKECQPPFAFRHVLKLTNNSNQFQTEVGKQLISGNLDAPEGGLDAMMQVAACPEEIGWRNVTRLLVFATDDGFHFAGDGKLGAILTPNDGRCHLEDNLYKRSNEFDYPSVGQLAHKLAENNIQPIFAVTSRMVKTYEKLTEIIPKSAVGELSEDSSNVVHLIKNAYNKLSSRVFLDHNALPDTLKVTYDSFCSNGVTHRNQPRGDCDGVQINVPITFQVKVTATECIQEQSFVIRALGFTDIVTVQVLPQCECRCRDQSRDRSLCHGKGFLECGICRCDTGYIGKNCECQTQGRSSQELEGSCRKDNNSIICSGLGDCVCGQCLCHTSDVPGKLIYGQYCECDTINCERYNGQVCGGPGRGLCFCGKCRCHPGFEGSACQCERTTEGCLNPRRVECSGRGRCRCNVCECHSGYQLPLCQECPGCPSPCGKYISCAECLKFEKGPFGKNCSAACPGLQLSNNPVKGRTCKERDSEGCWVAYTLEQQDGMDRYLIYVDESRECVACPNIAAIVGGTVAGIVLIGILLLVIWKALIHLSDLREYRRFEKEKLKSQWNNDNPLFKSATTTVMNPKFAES
Sequence of LFA-1 disulfide mutant #8 (αL Q1063C / β2 N678C) on 293T cells (P20701 26-1170 Q1088C, chain 1 of 2): as the sequence (P20701 26-1170 E1086C, chain 1 of 2) above, with C1061E, Q1063C counted along it
Sequence of LFA-1 disulfide mutant #8 (αL Q1063C / β2 N678C) on 293T cells (P05107 23-769 N700C, chain 2 of 2, further chain): as the sequence (P05107 23-769 G698C, chain 2 of 2, further chain) above, with C676G, N678C counted along it
Sequence of LFA-1 disulfide mutant #4 (αL Q1063C / β2 G676C) on 293T cells (P20701 26-1170 Q1088C, chain 1 of 2): as the sequence (P20701 26-1170 E1086C, chain 1 of 2) above, with C1061E, Q1063C counted along it
Sequence of LFA-1 disulfide mutant #4 (αL Q1063C / β2 G676C) on 293T cells (P05107 23-769 G698C, chain 2 of 2, further chain): as the sequence (P05107 23-769 G698C, chain 2 of 2, further chain) above
Sequence of LFA-1 disulfide mutant #6 (αL Q1063C / β2 P677C) on 293T cells (P20701 26-1170 Q1088C, chain 1 of 2): as the sequence (P20701 26-1170 E1086C, chain 1 of 2) above, with C1061E, Q1063C counted along it
Sequence of LFA-1 disulfide mutant #6 (αL Q1063C / β2 P677C) on 293T cells (P05107 23-769 P699C, chain 2 of 2, further chain): as the sequence (P05107 23-769 G698C, chain 2 of 2, further chain) above, with C676G, P677C counted along it
Sequence of wild-type LFA-1 (αLβ2) on 293T cells (P20701 26-1170 limits assumed, chain 1 of 2): as the sequence (P20701 26-1170 E1086C, chain 1 of 2) above, with C1061E counted along it
Sequence of wild-type LFA-1 (αLβ2) on 293T cells (P05107 23-769 limits assumed, chain 2 of 2, further chain): as the sequence (P05107 23-769 G698C, chain 2 of 2, further chain) above, with C676G counted along it
Sequence of LFA-1 disulfide mutant #9 (αL M1064C / β2 N678C) on 293T cells (P20701 26-1170 M1089C, chain 1 of 2): as the sequence (P20701 26-1170 E1086C, chain 1 of 2) above, with C1061E, M1064C counted along it
Sequence of LFA-1 disulfide mutant #9 (αL M1064C / β2 N678C) on 293T cells (P05107 23-769 N700C, chain 2 of 2, further chain): as the sequence (P05107 23-769 G698C, chain 2 of 2, further chain) above, with C676G, N678C counted along it
Sequence of LFA-1 disulfide mutant #7 (αL M1064C / β2 P677C) on 293T cells (P20701 26-1170 M1089C, chain 1 of 2): as the sequence (P20701 26-1170 E1086C, chain 1 of 2) above, with C1061E, M1064C counted along it
Sequence of LFA-1 disulfide mutant #7 (αL M1064C / β2 P677C) on 293T cells (P05107 23-769 P699C, chain 2 of 2, further chain): as the sequence (P05107 23-769 G698C, chain 2 of 2, further chain) above, with C676G, P677C counted along it
Sequence of LFA-1 disulfide mutant #5 (αL K1062C / β2 P677C) on 293T cells (P20701 26-1170 K1087C, chain 1 of 2): as the sequence (P20701 26-1170 E1086C, chain 1 of 2) above, with C1061E, K1062C counted along it
Sequence of LFA-1 disulfide mutant #5 (αL K1062C / β2 P677C) on 293T cells (P05107 23-769 P699C, chain 2 of 2, further chain): as the sequence (P05107 23-769 G698C, chain 2 of 2, further chain) above, with C676G, P677C counted along it
Sequence of LFA-1 disulfide mutant #3 (αL K1062C / β2 G676C) on 293T cells (P20701 26-1170 K1087C, chain 1 of 2): as the sequence (P20701 26-1170 E1086C, chain 1 of 2) above, with C1061E, K1062C counted along it
Sequence of LFA-1 disulfide mutant #3 (αL K1062C / β2 G676C) on 293T cells (P05107 23-769 G698C, chain 2 of 2, further chain): as the sequence (P05107 23-769 G698C, chain 2 of 2, further chain) above

Regarding X63 (antibody), the Mean (FACS mean fluorescence) in assay [1] was 5.96; in assay [2], 4.06.
With m24 (antibody), the Mean (FACS mean fluorescence) came out at 52.3 in assay [3]; 57.4 in assay [4]; 43.5 in assay [5]; 47.8 in assay [6]; 66.3 in [1]; 57.1 in [2]. The values for the Mean (FACS mean fluorescence) in [7], in [8] and in [9] were 35.8, 53 and 38.6, respectively. Moreover, the Mean value normalized with expression level (MHM24) stood at 0.42 in assay [3]; 0.46 in assay [4]; 0.39 in assay [5]; 0.46 in assay [6]; 0.39 in [1]; 0.36 in assay [2]. In addition, the results for the Mean value normalized with expression level (MHM24) in assay [7], in assay [8] and in assay [9] were 0.33, 0.39 and 0.4, respectively. Besides, the normalized mean relative to wild-type (WT is set to 1.0) turned out to be 1.06 in [10]; 1.17 in [11]; 0.99 in assay [12]; 1.18 in assay [13]; 0.92 in assay [14]; 0.83 in assay [15]. For the same substance, the normalized mean relative to wild-type (WT is set to 1.0) in assay [16] came to 0.99; in [17], 1; in [18] it was 1.
As for MHM24 (antibody), the Mean (FACS mean fluorescence) worked out at 117 in assay [3]; 117 in assay [4]; 102 in assay [5]; 95.9 in assay [6]; 147 in assay [2]; 97.4 in [7]. Also, the Mean (FACS mean fluorescence) in assay [8] is 126; in [9] it was 88.5.
Take KIM127 (antibody): the Mean (FACS mean fluorescence) in assay [3] was 10.9 and 14.4; in assay [4] it was 11.1 and 15.8; in assay [5] it was 10.3 and 9.36; in assay [6] it was 12.1 and 12.2; in [1], 12.2 and 13.9; in [2], 10 and 12.1. The Mean (FACS mean fluorescence) is 8.27 and 9.59 in assay [7]; 10.8 and 11.8 in assay [8]; 8.54 and 12.2 in [9]. Further, the Mean value normalized with expression level (MHM24) in assay [3] was 0.037 and 0.08; in assay [4], 0.039 and 0.093; in assay [5], 0.036 and 0.04; in [6], 0.06 and 0.074; in assay [1], 0.035 and 0.055; in assay [2], 0.023 and 0.047. For the same substance, the Mean value normalized with expression level (MHM24) in assay [7] was 0.016 and 0.044; in [8] it was 0.033 and 0.053. Further, the normalized mean relative to wild-type (WT is set to 1.0) is 1.06 and 1.47 in assay [10]; 1.12 and 1.69 in [11]; 1.03 and 0.73 in assay [12]; 1.69 and 1.35 in assay [13]; 0.66 and 0.85 in assay [14]; 0.46 and 0.81 in assay [15]. The normalized mean relative to wild-type (WT is set to 1.0) in [16] was 0.95 and 0.96; in assay [17], 0.61 and 1.49; in assay [18] it was 1.
